From publication PMC5715112 (2017) come the findings set out here.

Sequences and labels used below:
B1: VH59 fused to the VP16 activation domain (pEF-VP16, CHO cells) / GAL4 DNA binding domain (DBD)-LEDGF IBD fusion (pM1, CHO cells) [not stated] (parent complex)
chain 1: EVQLLESGGGLVQPGGSLRLSCAASGFTFSTFSMNWVRQAPGKGLEWVSYISRTSKTIYYADSVKGRFTISRDNSKNTLYLQMNSLRAEDTAVYYCARGGWALGDEIPSSFLEFDYWGQGTLVTVS
chain 2: ETSMDSRLQRIHAEIKNSLKIDNLDVNRCIEALDELASLQVTMQQAQKHTEMITTLKKIRRFKVSQVIMEKSTMLYNKFKNMFLVGE

In the first experiment the parent is B1. Nature of the experiment: mammalian two-hybrid luciferase reporter assay in CHO cells; 48 h after transfection; Firefly luciferase normalised to Renilla; read off a plot.
With chain 2 ETSMDSRLQRIHAEIKNSLKADNLDVNRCIEALDELASLQVTMQQAQKHTEMITTLKKIRRFKVSQVIMEKSTMLYNKFKNMFLVGE [chain 2 I21A], the response is roughly 0.05.

Consider chain 2 ETSMDSRLQRIHAEIKNSLKIDNLDVNRCIEALDELASLQVTMQQAQKHTEMITTLKKIRRFAVSQVIMEKSTMLYNKFKNMFLVGE [chain 2 K63A], for which the response was roughly 0.35.

With chain 2 ETSMDSRLQRIHAEIKNSLKIDNLDVNRCIEALDELASLQVTMQQAQKHTEMITTLKKIRRFKASQVIMEKSTMLYNKFKNMFLVGE [chain 2 V64A], the response is roughly 0.12.

chain 2 ETSMDSRLQRIHAEIKNSLKIANLDVNRCIEALDELASLQVTMQQAQKHTEMITTLKKIRRFKVSQVIMEKSTMLYNKFKNMFLVGE [chain 2 D22A]: the response is roughly 0.79.

As for chain 2 ETSMDSRLQRIHAEIKNSLKIDNLDVNRCIEALDELASLQVTMQQAQKHTEMITTLKAIRRFKVSQVIMEKSTMLYNKFKNMFLVGE [chain 2 K58A], the response is roughly 0.09.

For chain 2 ETSMDSRLQRIHAEIKNSLKIDNLDVNRCIEALDELASLQVTMQQAQKHTEMITTLKKIRRAKVSQVIMEKSTMLYNKFKNMFLVGE [chain 2 F62A], the response was roughly 0.05.

In the case of chain 2 ETSMDSRLQRIHAEIKNSAKIDNLDVNRCIEALDELASLQVTMQQAQKHTEMITTLKKIRRFKVSQVIMEKSTMLYNKFKNMFLVGE [chain 2 L19A], the response is roughly 0.08.

For the variant chain 2 ETSMDSRLQRIHAEIKNSLAIDNLDVNRCIEALDELASLQVTMQQAQKHTEMITTLKKIRRFKVSQVIMEKSTMLYNKFKNMFLVGE [chain 2 K20A], the response was roughly 0.71.

Regarding chain 2 ETSMDSRLQRIHAEIKNSLKIDNLDVNRCIEALDELASLQVTMQQAQKHTEMITTLKKIRAFKVSQVIMEKSTMLYNKFKNMFLVGE [chain 2 R61A], the response is roughly 2.

As to chain 2 ETSMDSRLQRIHAEIKNSLKIDNADVNRCIEALDELASLQVTMQQAQKHTEMITTLKKIRRFKVSQVIMEKSTMLYNKFKNMFLVGE [chain 2 L24A], the response is roughly 0.02.

In a further experiment the parent is B1. Kind of experiment: mammalian two-hybrid luciferase reporter assay in CHO cells; 48 h after transfection; Firefly/Renilla luciferase; n = 3; read off a plot.
Regarding chain 1 EVQLLESGGGLVQPGGSLRLSCAASGFTFSTFSMNWVRQAPGKGLEWVSYISRTSKTIYYADSVKGRFTISRDNSKNTLYLQMNSLRAEDTAVYYCARGGWALGDEIPSSFAEFDYWGQGTLVTVS [chain 1 L112A], the response was roughly 0.05.

Turning to chain 1 EVQLLESGGGLVQPGGSLRLSCAASGFTFSTFSMNWVRQAPGKGLEWVSYISRTSKTIYYADSVKGRFTISRDNSKNTLYLQMNSLRAEDTAVYYCARGGWALGDEIPASFLEFDYWGQGTLVTVS [chain 1 S109A], the response was roughly 0.46.

Turning to chain 1 EVQLLESGGGLVQPGGSLRLSCAASGFTFSTFSMNWVRQAPGKGLEWVSYISRTSKTIYYADSVKGRFTISRDNSKNTLYLQMNSLRAEDTAVYYCARGGWALGDEIPSSALEFDYWGQGTLVTVS [chain 1 F111A], the response was roughly 0.04.

On to chain 1 EVQLLESGGGLVQPGGSLRLSCAASGFTFSTFSMNWVRQAPGKGLEWVSYISRTSKTIYYADSVKGRFTISRDNSKNTLYLQMNSLRAEDTAVYYCARGGWALGDEIASSFLEFDYWGQGTLVTVS [chain 1 P108A], for which the response was roughly 0.04.

chain 1 EVQLLESGGGLVQPGGSLRLSCAASGFTFSTFSMNWVRQAPGKGLEWVSYISRTSKTIYYADSVKGRFTISRDNSKNTLYLQMNSLRAEDTAVYYCARGGWALGDEIPSAFLEFDYWGQGTLVTVS [chain 1 S110A]: the response was roughly 0.04.

Variants of B1 are the subject of the next experiment. Described as above. The source holds these as a separate data set.
As for chain 1 EVQLLESGGGLVQPGGSLRLSCAASGFTFSTFSMNWVRQAPGKGLEWVSYISRTSKTIYYADSVKGRFTISRDNSKNTLYLQMNSLRAEDTAVYYCARGGWALGDEIPSSFLEFDYAGQGTLVTVS [chain 1 W117A], the response was roughly 0.04.

Consider chain 1 EVQLLESGGGLVQPGGSLRLSCAASGFTFSTFSMNWVRQAPGKGLEWVSYISRTSKTIYYADSVKGRFTISRDNSKNTLYLQMNSLRAEDTAVYYCARGGWALGDEIPSSFLEFAYWGQGTLVTVS [chain 1 D115A], for which the response was roughly 0.04.

For the variant chain 1 EVQLLESGGGLVQPGGSLRLSCAASGFTFSTFSMNWVRQAPGKGLEWVSYISRTSKTIYYADSVKGRFTISRDNSKNTLYLQMNSLRAEDTAVYACARGGWALGDEIPSSFLEFDYWGQGTLVTVS [chain 1 Y95A], the response was roughly 0.04.

Regarding chain 1 EVQLLESGGGLVQPGGSLRLSCAASGFTFSTFSMNWVRQAPGKGLEWVSYISRTSKTIYYADSVKGRFTISRDNSKNTLYLQMNSLRAEDTAVYYCARGGWALGDEIPSSFLEFDAWGQGTLVTVS [chain 1 Y116A], the response is roughly 0.92.

As for chain 1 EVQLLESGGGLVQPGGSLRLSCAASGFTFSTFSMNWVRQAPGKGAEWVSYISRTSKTIYYADSVKGRFTISRDNSKNTLYLQMNSLRAEDTAVYYCARGGWALGDEIPSSFLEFDYWGQGTLVTVS [chain 1 L45A], the response was roughly 1.2.
